Results as given in patent US20190002564A1 (Hoffmann-La Roche, published 2019).

T1: cynomolgus MCSP D3 (cynomolgus, UniProt Q6UVK1 1582-2224 (human entry), limits assumed)
T1 construct: Recombinant, captured through anti-Penta His in the avidity set-up; also called Cyno MCSP; cynomolgus homologue
T1 chain: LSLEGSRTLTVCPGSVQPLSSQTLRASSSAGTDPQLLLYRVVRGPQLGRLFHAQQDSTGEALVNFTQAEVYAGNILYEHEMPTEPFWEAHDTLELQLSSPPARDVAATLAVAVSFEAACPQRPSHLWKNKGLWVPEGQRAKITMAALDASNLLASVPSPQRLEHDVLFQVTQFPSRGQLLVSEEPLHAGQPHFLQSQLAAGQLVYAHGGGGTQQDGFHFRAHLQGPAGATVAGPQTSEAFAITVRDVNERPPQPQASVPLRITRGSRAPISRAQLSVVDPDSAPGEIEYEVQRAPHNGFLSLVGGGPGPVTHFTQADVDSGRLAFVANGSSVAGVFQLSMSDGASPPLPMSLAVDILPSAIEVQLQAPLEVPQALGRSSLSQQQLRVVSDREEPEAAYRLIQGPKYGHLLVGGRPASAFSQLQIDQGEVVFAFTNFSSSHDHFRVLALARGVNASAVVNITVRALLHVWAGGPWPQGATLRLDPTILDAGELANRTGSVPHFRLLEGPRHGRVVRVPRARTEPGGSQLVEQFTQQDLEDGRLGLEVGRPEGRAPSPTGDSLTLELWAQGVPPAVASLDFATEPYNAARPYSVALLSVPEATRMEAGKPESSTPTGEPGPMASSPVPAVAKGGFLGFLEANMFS

T2: human MCSP(D3 domain)-avi-his (human, UniProt Q6UVK1 1582-2224)
T2 construct: Recombinant D3 domain of MCSP (CSPG4) with avi and his tags; also called hu-MCSP(D3 domain)-avi-his; human MCSP antigen
T2 sequence: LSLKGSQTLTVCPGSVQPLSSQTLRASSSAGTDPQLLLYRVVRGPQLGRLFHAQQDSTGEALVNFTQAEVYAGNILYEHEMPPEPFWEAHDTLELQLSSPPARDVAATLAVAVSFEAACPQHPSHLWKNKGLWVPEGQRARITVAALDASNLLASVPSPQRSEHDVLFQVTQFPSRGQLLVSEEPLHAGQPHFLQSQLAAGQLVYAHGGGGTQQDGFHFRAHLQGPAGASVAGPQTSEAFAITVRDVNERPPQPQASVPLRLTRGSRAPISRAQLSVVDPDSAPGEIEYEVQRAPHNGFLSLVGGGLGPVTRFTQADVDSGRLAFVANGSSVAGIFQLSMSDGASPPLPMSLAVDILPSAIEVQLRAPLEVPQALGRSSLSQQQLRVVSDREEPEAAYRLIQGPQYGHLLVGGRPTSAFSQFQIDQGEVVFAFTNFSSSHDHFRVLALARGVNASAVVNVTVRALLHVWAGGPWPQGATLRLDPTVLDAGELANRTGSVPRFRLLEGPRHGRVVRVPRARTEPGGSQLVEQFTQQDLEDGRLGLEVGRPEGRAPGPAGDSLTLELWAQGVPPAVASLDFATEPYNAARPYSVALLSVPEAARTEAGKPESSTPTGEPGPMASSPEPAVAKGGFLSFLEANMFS


How the values were obtained:
cynomolgus MCSP D3 = molecular target: T1, cynomolgus MCSP D3; experiment: SPR ProteOn XPR36; parental M4-3/ML2 IgG KD against variant IgG KD
[1] = molecular target: T2, human MCSP(D3 domain)-avi-his; experiment: as above

| Binder | Fold increase over parent (IgG KD) (cynomolgus MCSP D3) | Fold increase over parent (IgG KD) [1] |
| --- | --- | --- |
| M4-3(A7)/ML2(E10) IgG (antibody, V domains shown, Human IgG1 format, purified from mammalian production) VH: QVQLQESGPGLVKPSQTLSLTCTVSGGSITDGYYWNWIRQHPGKGLEWIGYITFDGRNNYNPSLKSRVTISRDTSKNQFSLKLSSVTAADTAVYYCADFDYWGQGTLVTVSS VL: DIQMTQSPSSLSASVGDRVTITCRASYGIRGYLNWYQQKPGKAPKLLIYYTSSLHSGVPSRFSGSGSGTDFTLTISSLQPEDFATYHCQQYSKLPWTFGQGTKVEIK | 2.9 fold | 6.7 fold |
| M4-3(A7)/ML2(G3) IgG (antibody, V domains shown, Human IgG1 format, purified from mammalian production) VH: QVQLQESGPGLVKPSQTLSLTCTVSGGSITDGYYWNWIRQHPGKGLEWIGYITFDGRNNYNPSLKSRVTISRDTSKNQFSLKLSSVTAADTAVYYCADFDYWGQGTLVTVSS VL: DIQMTQSPSSLSASVGDRVTITCRASQGIRNYLNWYQQKPGKAPKLLIYYTSSLHSGVPSRFSGSGSGTDYTLTISSLQPEDFATYYCQQYSALPWTFGQGTKVEIK | 10 fold | 28.6 fold |
| M4-3(C1)/ML2 IgG (antibody, V domains shown, Human IgG1 format, purified from mammalian production) VH: QVQLQESGPGLVKPSQTLSLTCTVSGGSITSGYYWNWIRQHPGKGLEWIGYITFDGSNNYNPSLKSRVTISRDTSKNQFSLKLSSVTAADTAVYYCADFDYWGQGTLVTVSS VL: DIQMTQSPSSLSASVGDRVTITCRASQGIRNYLNWYQQKPGKAPKLLIYYTSSLHSGVPSRFSGSGSGTDFTLTISSLQPEDFATYYCQQYSKLPWTFGQGTKVEIK | 2.5 fold | 2.2 fold |
| M4-3(C1)/ML2(C5) IgG (antibody, V domains shown, Human IgG1 format, produced in HEK293-EBNA) VH: QVQLQESGPGLVKPSQTLSLTCTVSGGSITSGYYWNWIRQHPGKGLEWIGYITFDGSNNYNPSLKSRVTISRDTSKNQFSLKLSSVTAADTAVYYCADFDYWGQGTLVTVSS VL: DIQMTQSPSSLSASVGDRVTITCRASRGIREYLNWYQQKPGKAPKLLIYYTGSLHSGVPSRFSGSGSGTDFTLTISSLQPEDFATYYCQQYSELPWTFGQGTKVEIK | 6.7 fold | 10 fold |
| M4-3(C1)/ML2(E10) IgG (antibody, V domains shown, Human IgG1 format, produced in HEK293-EBNA) VH: QVQLQESGPGLVKPSQTLSLTCTVSGGSITSGYYWNWIRQHPGKGLEWIGYITFDGSNNYNPSLKSRVTISRDTSKNQFSLKLSSVTAADTAVYYCADFDYWGQGTLVTVSS VL: DIQMTQSPSSLSASVGDRVTITCRASYGIRGYLNWYQQKPGKAPKLLIYYTSSLHSGVPSRFSGSGSGTDFTLTISSLQPEDFATYHCQQYSKLPWTFGQGTKVEIK | 3.3 fold | 4 fold |
| M4-3(D6)/ML2 IgG (antibody, V domains shown, Human IgG1 format, purified from mammalian production) VH: QVQLQESGPGLVKPSQTLSLTCTVSGGSITSGYYWNWIRQHPGKGLEWIGYITFDGKNNYNPSLKSRVTISRDTSKNQFSLKLSSVTAADTAVYYCADFDYWGQGTLVTVSS VL: DIQMTQSPSSLSASVGDRVTITCRASQGIRNYLNWYQQKPGKAPKLLIYYTSSLHSGVPSRFSGSGSGTDFTLTISSLQPEDFATYYCQQYSKLPWTFGQGTKVEIK | 2 fold | 5 fold |
| M4-3/ML2(C5) IgG (antibody, V domains shown, Human IgG1 format, purified from mammalian production) VH: QVQLQESGPGLVKPSQTLSLTCTVSGGSITSGYYWNWIRQHPGKGLEWIGYITYDGSNNYNPSLKSRVTISRDTSKNQFSLKLSSVTAADTAVYYCADFDYWGQGTLVTVSS VL: DIQMTQSPSSLSASVGDRVTITCRASRGIREYLNWYQQKPGKAPKLLIYYTGSLHSGVPSRFSGSGSGTDFTLTISSLQPEDFATYYCQQYSELPWTFGQGTKVEIK | 2 fold | 5 fold |
| M4-3/ML2(C5/G3) IgG (antibody, V domains shown, Human IgG1 format, purified from mammalian production) VH: QVQLQESGPGLVKPSQTLSLTCTVSGGSITSGYYWNWIRQHPGKGLEWIGYITYDGSNNYNPSLKSRVTISRDTSKNQFSLKLSSVTAADTAVYYCADFDYWGQGTLVTVSS VL: DIQMTQSPSSLSASVGDRVTITCRASRGIREYLNWYQQKPGKAPKLLIYYTGSLHSGVPSRFSGSGSGTDFTLTISSLQPEDFATYYCQQYSALPWTFGQGTKVEIK | 2 fold | 2.9 fold |
| M4-3/ML2(E10) IgG (antibody, V domains shown, Human IgG1 format, purified from mammalian production) VH: QVQLQESGPGLVKPSQTLSLTCTVSGGSITSGYYWNWIRQHPGKGLEWIGYITYDGSNNYNPSLKSRVTISRDTSKNQFSLKLSSVTAADTAVYYCADFDYWGQGTLVTVSS VL: DIQMTQSPSSLSASVGDRVTITCRASYGIRGYLNWYQQKPGKAPKLLIYYTSSLHSGVPSRFSGSGSGTDFTLTISSLQPEDFATYHCQQYSKLPWTFGQGTKVEIK | 1 fold | 2 fold |
| M4-3/ML2(E10/G3) IgG (antibody, V domains shown, Human IgG1 format, purified from mammalian production) VH: QVQLQESGPGLVKPSQTLSLTCTVSGGSITSGYYWNWIRQHPGKGLEWIGYITYDGSNNYNPSLKSRVTISRDTSKNQFSLKLSSVTAADTAVYYCADFDYWGQGTLVTVSS VL: DIQMTQSPSSLSASVGDRVTITCRASYGIRGYLNWYQQKPGKAPKLLIYYTSSLHSGVPSRFSGSGSGTDFTLTISSLQPEDFATYHCQQYSALPWTFGQGTKVEIK | 2.2 fold | 5 fold |
| M4-3/ML2(G3) IgG (antibody, V domains shown, Human IgG1 format, purified from mammalian production) VH: QVQLQESGPGLVKPSQTLSLTCTVSGGSITSGYYWNWIRQHPGKGLEWIGYITYDGSNNYNPSLKSRVTISRDTSKNQFSLKLSSVTAADTAVYYCADFDYWGQGTLVTVSS VL: DIQMTQSPSSLSASVGDRVTITCRASQGIRNYLNWYQQKPGKAPKLLIYYTSSLHSGVPSRFSGSGSGTDYTLTISSLQPEDFATYYCQQYSALPWTFGQGTKVEIK | 3.3 fold | 6.7 fold |
| M4-3(A7)/ML2 IgG (antibody, V domains shown, Human IgG1 format, purified from mammalian production) VH: QVQLQESGPGLVKPSQTLSLTCTVSGGSITDGYYWNWIRQHPGKGLEWIGYITFDGRNNYNPSLKSRVTISRDTSKNQFSLKLSSVTAADTAVYYCADFDYWGQGTLVTVSS VL: DIQMTQSPSSLSASVGDRVTITCRASQGIRNYLNWYQQKPGKAPKLLIYYTSSLHSGVPSRFSGSGSGTDFTLTISSLQPEDFATYYCQQYSKLPWTFGQGTKVEIK | 2 fold | 2.5 fold |
| M4-3(A7)/ML2(C5) IgG (antibody, V domains shown, Human IgG1 format, purified from mammalian production) VH: QVQLQESGPGLVKPSQTLSLTCTVSGGSITDGYYWNWIRQHPGKGLEWIGYITFDGRNNYNPSLKSRVTISRDTSKNQFSLKLSSVTAADTAVYYCADFDYWGQGTLVTVSS VL: DIQMTQSPSSLSASVGDRVTITCRASRGIREYLNWYQQKPGKAPKLLIYYTGSLHSGVPSRFSGSGSGTDFTLTISSLQPEDFATYYCQQYSELPWTFGQGTKVEIK | 10 fold | 28.6 fold |
| M4-3(B7)/ML2 IgG (antibody, V domains shown, Human IgG1 format, purified from mammalian production) VH: QVQLQESGPGLVKPSQTLSLTCTVSGGSITSGYYWNWIRQHPGKGLEWIGYITFDGINNYNPSLKSRVTISRDTSKNQFSLKLSSVTAADTAVYYCADFDYWGQGTLVTVSS VL: DIQMTQSPSSLSASVGDRVTITCRASQGIRNYLNWYQQKPGKAPKLLIYYTSSLHSGVPSRFSGSGSGTDFTLTISSLQPEDFATYYCQQYSKLPWTFGQGTKVEIK | 2.9 fold | 4 fold |
| M4-3(B8)/ML2 IgG (antibody, V domains shown, Human IgG1 format, purified from mammalian production) VH: QVQLQESGPGLVKPSQTLSLTCTVSGGSITSGYYWNWIRQHPGKGLEWIGYITFDGRNNYNPSLKSRVTISRDTSKNQFSLKLSSVTAADTAVYYCADFDYWGQGTLVTVSS VL: DIQMTQSPSSLSASVGDRVTITCRASQGIRNYLNWYQQKPGKAPKLLIYYTSSLHSGVPSRFSGSGSGTDFTLTISSLQPEDFATYYCQQYSKLPWTFGQGTKVEIK | 2 fold | 2.2 fold |
